Test results published in the array DNA melting data of Ke et al..

Experiment: melting temperature; UV melt of duplexes

| Substance | Tm (sodium 0.07 M, strand 2 µM) [°C] | Tm (sodium 0.12 M, strand 2 µM) [°C] | Tm (sodium 0.22 M, strand 2 µM) [°C] | Tm (sodium 0.62 M, strand 2 µM) [°C] | Tm (sodium 1.02 M, strand 2 µM) [°C] | further results |
| --- | --- | --- | --- | --- | --- | --- |
| CTTCAACGGATCAGGTAGGACTGTGGTGGG+CCCACCACAGTCCTACCTGATCCGTTGAAG ((((((((((((((((((((((((((((((+)))))))))))))))))))))))))))))) | 67.6 | 71.7 | 74.7 | 78.8 | 80.1 |  |
| ACGCCCACAGGATTAGGCTGGCCCACATTG+CAATGTGGGCCAGCCTAATCCTGTGGGCGT ((((((((((((((((((((((((((((((+)))))))))))))))))))))))))))))) | 71.3 | 74.7 | 78.5 | 82.7 | 84 |  |
| GATGACGCTAGCTAGCTAGGAC+GTCCTAGCTAGCTAGCGTCATC ((((((((((((((((((((((+)))))))))))))))))))))) |  |  |  |  |  | Tm (sodium 0.15 M, strand 1.1 µM): 64 °C |
| AATATGAATTCTAATA+TATTAGAATTCATATT ((((((((((((((((+)))))))))))))))) |  |  |  |  |  | Tm (sodium 0.12 M, strand 6 µM): 41.4 °C |
| ATACGCGAGGATCCAGCGCAAT+ATTGCGCTGGATCCTCGCGTAT ((((((((((((((((((((((+)))))))))))))))))))))) |  |  |  |  |  | Tm (sodium 0.12 M, strand 4 µM): 71.1 °C |
| CTCGTACCTTTCCGGTCC+GGACCGGAAAGGTACGAG ((((((((((((((((((+)))))))))))))))))) |  |  |  |  |  | Tm (sodium 0.1 M, strand 4 µM): 61.7 °C |
| CTGGTCTGGATCTGAGAACTTCAGG+CCTGAAGTTCTCAGATCCAGACCAG (((((((((((((((((((((((((+))))))))))))))))))))))))) | 62.1 | 65.8 | 69.6 | 74.2 | 75.6 |  |
| GAGATTGTTTCCCTTTCAAA+TTTGAAAGGGAAACAATCTC ((((((((((((((((((((+)))))))))))))))))))) | 49.3 | 52.8 | 57.6 | 62.6 | 65.3 |  |
| ATAAATAAAGCTTTATTTAT+ATAAATAAAGCTTTATTTAT ((((((((((((((((((((+)))))))))))))))))))) |  |  |  |  |  | Tm (sodium 0.12 M, strand 7 µM): 46.2 °C |
| CGTACTAGCGTTGGTCATGG+CCATGACCAACGCTAGTACG ((((((((((((((((((((+)))))))))))))))))))) | 59.6 | 63.1 | 66.6 | 70.5 | 71.1 |  |
| CCGTGCGGTGTGTACGTTTTATTCATCATA+TATGATGAATAAAACGTACACACCGCACGG ((((((((((((((((((((((((((((((+)))))))))))))))))))))))))))))) | 63.9 | 68.3 | 71.8 | 76.5 | 77.6 |  |
| TTATGTATTAAGTTATATAGTAGTAGTAGT+ACTACTACTACTATATAACTTAATACATAA ((((((((((((((((((((((((((((((+)))))))))))))))))))))))))))))) | 50.7 | 55 | 59.3 | 65.1 | 66.6 |  |
| GACCTGACGTGGACCGCTCCTGGGCGTGGT+ACCACGCCCAGGAGCGGTCCACGTCAGGTC ((((((((((((((((((((((((((((((+)))))))))))))))))))))))))))))) | 74.4 | 78.4 | 81.5 | 85.2 | 86.4 |  |
| AGATCATATATATCGAT+ATCGATATATATGATCT (((((((((((((((((+))))))))))))))))) |  |  |  |  |  | Tm (sodium 0.12 M, strand 4 µM): 49.2 °C |
| TAACCATACTGAATACCTTTTGACG+CGTCAAAAGGTATTCAGTATGGTTA (((((((((((((((((((((((((+))))))))))))))))))))))))) | 56.5 | 60.2 | 64.3 | 68.9 | 71.3 |  |
| GCGGATTAGGATCCATATCGCG+CGCGATATGGATCCTAATCCGC ((((((((((((((((((((((+)))))))))))))))))))))) |  |  |  |  |  | Tm (sodium 0.12 M, strand 4 µM): 65.4 °C |
| CTCGTACCTTCCGGTCC+GGACCGGAAGGTACGAG (((((((((((((((((+))))))))))))))))) |  |  |  |  |  | Tm (sodium 0.1 M, strand 4 µM): 60.6 °C |
| ACTGGCGAGGATCCAGCGGTCA+TGACCGCTGGATCCTCGCCAGT ((((((((((((((((((((((+)))))))))))))))))))))) |  |  |  |  |  | Tm (sodium 0.12 M, strand 4.1 µM): 71.8 °C |
| TGGATTCTACTCAACCTTAGTCTGG+CCAGACTAAGGTTGAGTAGAATCCA (((((((((((((((((((((((((+))))))))))))))))))))))))) | 59 | 63.1 | 67.1 | 71.3 | 73.6 |  |
| TATGTATATTTTGTAATCAG+CTGATTACAAAATATACATA ((((((((((((((((((((+)))))))))))))))))))) | 44.4 | 47.7 | 52.6 | 57.6 | 61.2 |  |
| AATATATAGCTATCGAT+ATCGATAGCTATATATT (((((((((((((((((+))))))))))))))))) |  |  |  |  |  | Tm (sodium 0.12 M, strand 4 µM): 49.7 °C |
| ATGGGTGGGAGCCTCGGTAGCAGCC+GGCTGCTACCGAGGCTCCCACCCAT (((((((((((((((((((((((((+))))))))))))))))))))))))) | 70.7 | 74.5 | 78.2 | 81.6 | 83.4 |  |
| CAGTGGGCTCCTGGGCGTGCTGGTC+GACCAGCACGCCCAGGAGCCCACTG (((((((((((((((((((((((((+))))))))))))))))))))))))) | 72 | 75.6 | 79.2 | 82.6 | 83.4 |  |
| ATATATATGAATTCATATATAT+ATATATATGAATTCATATATAT ((((((((((((((((((((((+)))))))))))))))))))))) |  |  |  |  |  | Tm (sodium 0.12 M, strand 6 µM): 48.9 °C |
| ATGCAATGCTACATATTCGC+GCGAATATGTAGCATTGCAT ((((((((((((((((((((+)))))))))))))))))))) | 55.2 | 59.5 | 62.9 | 67 | 68.9 |  |
| TAGTGGCGATTAGATTCTGC+GCAGAATCTAATCGCCACTA ((((((((((((((((((((+)))))))))))))))))))) | 57 | 60.6 | 64.8 | 69.1 | 71.2 |  |
